Results from the supplement of paper PMC10065799, “High-throughput profiling of sequence recognition by tyrosine kinases and SH2 domains using bacterial peptide display” (eLife, 2023).

Columns and labels:
SHP2-C SH2 = assay: SH2 binding enrichment of the phosphorylated peptide, bacterial display (enrichment ratio); higher = better substrate or ligand; peptides without Tyr show the background
Grb2 SH2 = Grb2 SH2 (UniProt P62993); assay: as above
c-Src SH2 = assay: as above
c-Abl (mouse) = assay: phosphorylation enrichment, bacterial display (enrichment ratio); higher = better substrate or ligand; peptides without Tyr show the background
Fer (mouse) = assay: as above
MERTK = MERTK (UniProt Q12866); assay: as above
AncSZ = assay: as above
Fes = Fes (UniProt P07332); assay: as above
Fyn = Fyn (UniProt P06241); assay: as above
FGFR1 = FGFR1 (UniProt P11362); assay: as above
EPHB2 = EPHB2 (UniProt P29323); assay: as above
c-Src = assay: as above
FGFR3 = FGFR3 (UniProt P22607); assay: as above
Hck = Hck (UniProt P08631); assay: as above
EPHB1 = EPHB1 (UniProt P54762); assay: as above
Jak2 = Jak2 (UniProt O60674); assay: as above
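Throughout, for SH2 binding enrichment of the phosphorylated peptide, bacterial display: peptide library displayed on the E. coli surface as eCPX fusions, selected cells deep-sequenced, score is each peptide's frequency after selection divided by its frequency in the input.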
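Throughout, for phosphorylation enrichment, bacterial display: 11-residue human phosphosite peptides and single-mutation variants displayed on the E. coli surface, counted by deep sequencing, each peptide's frequency after selection divided by its frequency in the unselected input library; frequency after pTyr selection over input frequency; kinase dosed for 20-30% of maximal phosphorylation in three min.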

MERTK, sequence (Q12866 whole entry, looked up): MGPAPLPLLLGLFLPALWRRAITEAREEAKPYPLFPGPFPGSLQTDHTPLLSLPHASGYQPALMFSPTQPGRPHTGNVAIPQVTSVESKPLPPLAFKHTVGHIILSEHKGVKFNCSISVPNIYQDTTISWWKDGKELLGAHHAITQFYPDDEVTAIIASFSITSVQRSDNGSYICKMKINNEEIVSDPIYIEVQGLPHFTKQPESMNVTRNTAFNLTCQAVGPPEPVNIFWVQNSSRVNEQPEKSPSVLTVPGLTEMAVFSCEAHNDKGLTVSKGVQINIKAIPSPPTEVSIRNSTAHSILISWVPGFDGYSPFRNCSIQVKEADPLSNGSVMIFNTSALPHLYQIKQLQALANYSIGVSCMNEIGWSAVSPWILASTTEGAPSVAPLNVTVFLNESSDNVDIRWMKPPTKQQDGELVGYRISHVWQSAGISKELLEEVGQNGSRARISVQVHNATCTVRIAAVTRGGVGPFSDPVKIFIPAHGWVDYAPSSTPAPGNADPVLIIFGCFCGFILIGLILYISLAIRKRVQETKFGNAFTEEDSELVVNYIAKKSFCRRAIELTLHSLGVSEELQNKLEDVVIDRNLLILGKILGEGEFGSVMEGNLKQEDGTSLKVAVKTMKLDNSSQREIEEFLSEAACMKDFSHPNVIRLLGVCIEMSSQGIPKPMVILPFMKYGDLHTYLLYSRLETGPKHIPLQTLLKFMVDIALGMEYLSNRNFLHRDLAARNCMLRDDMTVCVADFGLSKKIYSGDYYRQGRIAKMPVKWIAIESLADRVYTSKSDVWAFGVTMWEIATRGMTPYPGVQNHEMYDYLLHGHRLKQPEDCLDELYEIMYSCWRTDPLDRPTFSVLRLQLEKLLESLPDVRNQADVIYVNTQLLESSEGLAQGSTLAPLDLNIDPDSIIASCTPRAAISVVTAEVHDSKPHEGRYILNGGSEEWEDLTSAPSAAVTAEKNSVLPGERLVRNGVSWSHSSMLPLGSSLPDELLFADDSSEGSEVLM
Jak2, sequence (O60674 whole entry, looked up, the tested form may be a part): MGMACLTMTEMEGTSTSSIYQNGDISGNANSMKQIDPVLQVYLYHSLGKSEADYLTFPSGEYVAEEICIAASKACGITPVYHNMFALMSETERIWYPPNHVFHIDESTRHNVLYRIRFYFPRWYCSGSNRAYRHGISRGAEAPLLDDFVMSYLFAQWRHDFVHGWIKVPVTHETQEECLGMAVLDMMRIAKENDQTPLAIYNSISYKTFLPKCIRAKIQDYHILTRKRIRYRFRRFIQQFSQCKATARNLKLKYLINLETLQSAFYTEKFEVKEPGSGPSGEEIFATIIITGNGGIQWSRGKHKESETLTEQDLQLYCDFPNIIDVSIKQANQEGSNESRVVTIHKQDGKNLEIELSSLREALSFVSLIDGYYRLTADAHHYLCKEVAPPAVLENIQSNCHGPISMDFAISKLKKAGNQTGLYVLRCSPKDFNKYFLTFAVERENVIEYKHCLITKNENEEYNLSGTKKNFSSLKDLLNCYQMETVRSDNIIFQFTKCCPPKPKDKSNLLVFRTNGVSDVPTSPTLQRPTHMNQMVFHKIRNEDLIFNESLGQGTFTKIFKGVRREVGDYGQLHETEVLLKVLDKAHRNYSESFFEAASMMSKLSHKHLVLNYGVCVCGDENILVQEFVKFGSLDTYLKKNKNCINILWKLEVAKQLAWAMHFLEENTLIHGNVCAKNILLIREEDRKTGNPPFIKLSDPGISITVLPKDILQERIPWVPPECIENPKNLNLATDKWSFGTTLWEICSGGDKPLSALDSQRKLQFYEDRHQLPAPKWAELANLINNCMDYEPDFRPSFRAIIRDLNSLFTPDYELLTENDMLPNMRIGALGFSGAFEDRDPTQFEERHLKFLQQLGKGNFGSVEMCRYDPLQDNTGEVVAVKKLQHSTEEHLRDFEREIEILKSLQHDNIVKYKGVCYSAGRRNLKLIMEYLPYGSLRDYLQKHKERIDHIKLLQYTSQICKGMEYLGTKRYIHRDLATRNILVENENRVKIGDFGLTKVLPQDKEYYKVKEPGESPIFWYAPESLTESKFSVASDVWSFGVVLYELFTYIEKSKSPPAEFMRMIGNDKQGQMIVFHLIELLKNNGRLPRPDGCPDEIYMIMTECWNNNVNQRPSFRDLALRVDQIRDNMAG
EPHB1, sequence (P54762 whole entry, looked up): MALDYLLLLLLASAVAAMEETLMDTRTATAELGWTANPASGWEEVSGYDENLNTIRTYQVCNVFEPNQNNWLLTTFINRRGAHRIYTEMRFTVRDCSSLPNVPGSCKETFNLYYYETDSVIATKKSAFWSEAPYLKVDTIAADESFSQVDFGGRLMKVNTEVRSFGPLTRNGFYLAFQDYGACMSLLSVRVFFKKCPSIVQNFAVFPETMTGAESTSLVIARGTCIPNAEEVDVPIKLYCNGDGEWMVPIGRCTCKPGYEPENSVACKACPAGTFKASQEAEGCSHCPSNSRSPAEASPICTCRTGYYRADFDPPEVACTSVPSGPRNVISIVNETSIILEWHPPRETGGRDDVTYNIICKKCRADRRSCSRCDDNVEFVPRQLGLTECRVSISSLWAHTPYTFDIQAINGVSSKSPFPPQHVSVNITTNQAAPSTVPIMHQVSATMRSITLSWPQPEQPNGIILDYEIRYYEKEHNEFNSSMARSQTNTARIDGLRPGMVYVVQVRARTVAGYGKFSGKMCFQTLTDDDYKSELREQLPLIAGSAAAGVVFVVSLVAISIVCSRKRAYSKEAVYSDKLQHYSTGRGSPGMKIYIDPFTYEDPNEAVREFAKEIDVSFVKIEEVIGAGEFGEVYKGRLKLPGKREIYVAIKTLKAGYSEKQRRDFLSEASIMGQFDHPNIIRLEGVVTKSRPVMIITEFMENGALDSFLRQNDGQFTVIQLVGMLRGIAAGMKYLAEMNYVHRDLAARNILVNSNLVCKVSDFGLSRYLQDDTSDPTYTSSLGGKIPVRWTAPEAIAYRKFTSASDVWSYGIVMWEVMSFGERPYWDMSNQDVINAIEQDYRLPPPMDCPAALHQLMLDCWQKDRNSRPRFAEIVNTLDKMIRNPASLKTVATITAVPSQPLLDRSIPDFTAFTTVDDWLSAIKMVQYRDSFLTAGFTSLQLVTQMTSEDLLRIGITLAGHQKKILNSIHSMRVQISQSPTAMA
Grb2 SH2, sequence (P62993 whole entry, looked up): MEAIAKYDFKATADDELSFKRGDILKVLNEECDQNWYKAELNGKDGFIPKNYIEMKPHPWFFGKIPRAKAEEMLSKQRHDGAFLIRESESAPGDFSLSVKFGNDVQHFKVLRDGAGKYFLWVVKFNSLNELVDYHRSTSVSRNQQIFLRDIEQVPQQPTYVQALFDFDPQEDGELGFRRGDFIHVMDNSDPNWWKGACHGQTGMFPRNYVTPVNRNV
Fes, sequence (P07332 whole entry, looked up): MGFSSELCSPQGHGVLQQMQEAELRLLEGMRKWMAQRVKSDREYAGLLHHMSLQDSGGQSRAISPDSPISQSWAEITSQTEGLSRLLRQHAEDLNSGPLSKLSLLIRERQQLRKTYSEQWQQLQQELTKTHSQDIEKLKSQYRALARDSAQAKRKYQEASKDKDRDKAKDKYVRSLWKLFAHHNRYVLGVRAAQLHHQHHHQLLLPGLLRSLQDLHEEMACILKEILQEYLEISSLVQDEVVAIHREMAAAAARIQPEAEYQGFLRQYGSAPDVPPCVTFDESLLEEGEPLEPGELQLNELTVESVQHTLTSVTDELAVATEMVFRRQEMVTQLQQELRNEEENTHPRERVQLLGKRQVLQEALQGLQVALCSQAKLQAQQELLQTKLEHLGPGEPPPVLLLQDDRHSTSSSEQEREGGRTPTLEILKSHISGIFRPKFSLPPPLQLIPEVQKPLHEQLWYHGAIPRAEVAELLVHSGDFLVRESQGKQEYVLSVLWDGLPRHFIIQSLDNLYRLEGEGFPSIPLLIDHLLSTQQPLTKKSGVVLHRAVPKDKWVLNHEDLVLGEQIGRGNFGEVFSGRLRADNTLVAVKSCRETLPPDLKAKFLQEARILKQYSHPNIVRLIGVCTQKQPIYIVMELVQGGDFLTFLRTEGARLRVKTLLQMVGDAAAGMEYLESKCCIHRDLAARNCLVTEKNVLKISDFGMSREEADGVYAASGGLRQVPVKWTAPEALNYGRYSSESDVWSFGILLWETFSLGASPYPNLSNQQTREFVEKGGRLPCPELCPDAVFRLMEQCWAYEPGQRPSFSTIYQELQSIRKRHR
Fyn, sequence (P06241 whole entry, looked up): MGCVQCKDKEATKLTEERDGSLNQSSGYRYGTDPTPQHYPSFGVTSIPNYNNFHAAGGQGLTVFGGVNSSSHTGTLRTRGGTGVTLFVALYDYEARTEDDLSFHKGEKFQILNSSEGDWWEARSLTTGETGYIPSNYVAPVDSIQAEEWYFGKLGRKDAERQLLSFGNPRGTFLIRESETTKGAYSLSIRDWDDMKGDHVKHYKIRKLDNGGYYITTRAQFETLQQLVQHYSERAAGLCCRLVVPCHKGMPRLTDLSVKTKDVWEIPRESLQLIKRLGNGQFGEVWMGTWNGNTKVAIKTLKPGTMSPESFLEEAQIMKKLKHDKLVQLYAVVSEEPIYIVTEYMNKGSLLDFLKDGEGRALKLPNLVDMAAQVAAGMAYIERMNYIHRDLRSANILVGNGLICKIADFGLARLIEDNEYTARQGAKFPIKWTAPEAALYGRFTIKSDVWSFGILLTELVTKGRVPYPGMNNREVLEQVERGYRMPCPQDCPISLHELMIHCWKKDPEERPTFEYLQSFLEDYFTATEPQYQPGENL

Sequence | SH2 binding enrichment (SHP2-C SH2) | SH2 binding enrichment (Grb2 SH2) | SH2 binding enrichment (c-Src SH2) | phosphorylation enrichment (c-Abl (mouse)) | phosphorylation enrichment (Fer (mouse)) | phosphorylation enrichment (MERTK) | phosphorylation enrichment (AncSZ) | phosphorylation enrichment (Fes) | phosphorylation enrichment (Fyn) | phosphorylation enrichment (FGFR1) | phosphorylation enrichment (EPHB2) | phosphorylation enrichment (c-Src) | phosphorylation enrichment (FGFR3) | phosphorylation enrichment (Hck) | phosphorylation enrichment (EPHB1) | phosphorylation enrichment (Jak2)
QTSTDYDIRFY [CSNK2A1_Y131_L128S] | 0.625 | 0.707 | 0.36 | 1.2 | 0.844 | 0.869 | 1.46 | 1.86 | 0.981 | 1.08 | 1.36 | 0.785 | 1.04 | 0.89 | 1.22 | 1.47
RFGKVYKAHLF [ROR2_Y488_G490A] | 0.668 | 1.03 | 0.613 | 0.594 | 0.846 | 0.509 | 0.622 | 0.604 | 0.57 | 0.72 | 0.583 | 0.886 | 0.733 | 0.645 | 0.476 | 0.39
TSSAGYRRTPS [ABI1_Y333_G331A] | 0.405 | 1.03 | 0.45 | 0.576 | 0.36 | 0.392 | 0.565 | 0.594 | 0.484 | 0.499 | 0.497 | 0.444 | 0.491 | 0.446 | 0.42 | 0.476
TMKSHYMELYD [BBS2_Y644_R643H] | 1.84 | 1.22 | 10.3 | 0.693 | 0.453 | 1.34 | 0.807 | 1.01 | 0.69 | 0.568 | 0.683 | 1.2 | 0.64 | 0.953 | 0.971 | 0.864
SARFRYLLAEK [LDHB_Y173_M175L] | 0.593 | 0.766 | 0.437 | 0.783 | 0.452 | 0.498 | 0.724 | 0.697 | 0.514 | 0.439 | 0.477 | 0.515 | 0.55 | 0.508 | 0.35 | 0.641
RLSVDYSKKSK [TUBA3E_Y161] | 0.526 | 0.894 | 0.387 | 0.433 | 0.35 | 0.461 | 0.515 | 0.553 | 0.247 | 0.373 | 0.389 | 0.36 | 0.34 | 0.442 | 1.09 | 0.408
DAVKHYMQFQK [CNGA2_Y395_R399Q] | 0.781 | 0.768 | 0.62 | 0.356 | 0.424 | 0.473 | 0.548 | 0.496 | 0.429 | 0.348 | 0.301 | 0.485 | 0.449 | 0.552 | 0.451 | 0.461
ILQSMYGCDVG [HLA-B_Y123_T118I] | 0.566 | 0.818 | 0.402 | 0.546 | 0.48 | 0.438 | 0.816 | 0.935 | 0.489 | 0.403 | 0.51 | 0.569 | 0.624 | 0.517 | 0.659 | 0.893
PPKFFDTRKLL [CYBB_Y41_Y41D] | 1.17 | 1.54 | 0.92 | 0.759 | 0.941 | 0.796 | 0.992 | 0.639 | 0.518 | 0.365 | 0.556 | 0.614 | 0.38 | 0.51 | 0.383 | 0.663
AMGPVYQAAAL [HYOU1_Y421_A419P] | 0.826 | 0.736 | 0.528 | 3.43 | 6.15 | 1.03 | 0.657 | 0.611 | 5.43 | 0.502 | 1.25 | 4.05 | 0.435 | 6.53 | 0.933 | 0.615
QTPVLYAMLYH [MPZ_Y220_D224Y] | 1.05 | 0.917 | 0.44 | 2.58 | 8.03 | 8.33 | 1.1 | 1.43 | 4.4 | 5.59 | 6.54 | 3.4 | 4.53 | 5.44 | 9.9 | 1.89
MTEEQYIKMNR [ARFGEF2_Y797_K794E] | 0.435 | 0.674 | 0.376 | 0.612 | 0.524 | 0.386 | 0.941 | 1.09 | 0.451 | 0.558 | 0.502 | 0.441 | 0.638 | 0.493 | 0.478 | 1.02
CTTTHYNYMCN [TP53_Y234_I232T] | 3.73 | 0.951 | 10.6 | 0.484 | 0.446 | 0.391 | 0.708 | 0.722 | 0.441 | 0.551 | 0.592 | 0.424 | 0.533 | 0.497 | 0.563 | 0.58
TTKGSYSLSVR [HCK_Y180] | 0.664 | 0.876 | 0.51 | 0.624 | 0.388 | 0.455 | 0.674 | 0.727 | 0.461 | 0.558 | 0.43 | 0.568 | 0.582 | 0.433 | 0.448 | 1.04
IMAFFYMCDSA [CASD1_Y382_R386S_YF] | 0.725 | 1.1 | 0.551 | 1.11 | 0.805 | 0.401 | 1.44 | 1.78 | 0.548 | 0.791 | 0.782 | 0.596 | 1.12 | 0.658 | 0.896 | 1.41
MDNQEYKDAFT [BRDT_Y331_K336T_YF] | 0.69 | 0.685 | 0.617 | 0.737 | 0.539 | 0.402 | 1.14 | 1.3 | 0.486 | 0.539 | 0.913 | 0.458 | 0.802 | 0.488 | 0.56 | 1.15
